These results are taken from patent US20030207391A1 (published 2003).

To fix the notation:
B1: FLT-1 Domain 4 Construct 2 (residues 330-440), His-tagged (receptor)
chain: DKAFITVKHRKQQVLETVAGKRSYRLSMKVKAFPSPEVVWLKDGLPATEKSARYLTRGYSLIIKDVTEEDAGNYTILLSIKQSNVFKNLTATLIVNVKPQIYEKAVSSFPD
notes: not shown: histidine tag from the E. coli expression vector
B2: FLT-1 Domain 4 Construct 0 (residues 338-440), His-tagged (receptor)
chain: HRKQQVLETVAGKRSYRLSMKVKAFPSPEVVWLKDGLPATEKSARYLTRGYSLIIKDVTEEDAGNYTILLSIKQSNVFKNLTATLIVNVKPQIYEKAVSSFPD
notes: probably a printing error; also called sFLT-1 Dom; 4 (construct 0); His-Tagged Domain 4 (Construct 0); not shown: histidine tag from the E. coli expression vector
B3: FLT-1 Domain 4 Construct 1 (residues 330-429), His-tagged (receptor)
chain: DKAFITVKHRKQQVLETVAGKRSYRLSMKVKAFPSPEVVWLKDGLPATEKSARYLTRGYSLIIKDVTEEDAGNYTILLSIKQSNVFKNLTATLIVNVKPQ
notes: as for B1

T1 sequence (P17948 other isoform, or with tags, fused parts or gaps limits assumed): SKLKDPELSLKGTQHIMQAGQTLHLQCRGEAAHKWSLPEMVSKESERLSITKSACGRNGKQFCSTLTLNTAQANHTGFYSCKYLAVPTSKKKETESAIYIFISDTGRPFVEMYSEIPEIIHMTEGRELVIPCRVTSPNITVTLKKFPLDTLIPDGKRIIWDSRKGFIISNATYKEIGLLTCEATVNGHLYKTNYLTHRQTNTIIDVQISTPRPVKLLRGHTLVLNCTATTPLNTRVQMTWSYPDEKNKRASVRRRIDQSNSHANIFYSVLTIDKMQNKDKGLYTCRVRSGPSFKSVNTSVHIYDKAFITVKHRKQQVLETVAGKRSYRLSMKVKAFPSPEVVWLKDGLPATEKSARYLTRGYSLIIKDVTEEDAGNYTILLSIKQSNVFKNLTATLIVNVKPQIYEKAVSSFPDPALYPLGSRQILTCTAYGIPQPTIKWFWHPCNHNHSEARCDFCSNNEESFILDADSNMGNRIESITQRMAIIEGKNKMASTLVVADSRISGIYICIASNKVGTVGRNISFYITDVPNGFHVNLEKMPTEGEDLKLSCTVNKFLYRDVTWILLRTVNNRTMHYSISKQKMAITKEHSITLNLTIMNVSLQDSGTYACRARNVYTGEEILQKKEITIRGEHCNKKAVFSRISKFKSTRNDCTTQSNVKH

This assay addresses T1, soluble FLT-1 (sFLT-1) (Homo sapiens, UniProt P17948-2 27-687, limits assumed).
T1 construct: the whole FLT-1 entry is named
Description: BIAcore; 50 nM sFLT-1 pre-incubated overnight with 50 µg/ml construct, passed over immobilised mAb 2B2. The protocol: Binding of Domain 4 on sFLT-1 is determined using Biomolecular Interaction Analysis (Biacore). (Fisher R. J. and Fivash, M. (1994) Curr. Opin. Biotech. 5, 389-395).
A monoclonal antibody (2B2) specific to Domains 1 to 3 of sFLT-1, but not Domain 4, was immobilized on the sensor chip at a concentration of 30 μg/ml in 10 mM NaAc, pH 5. 50 μg/ml of the four Domain 4 constructs in 20 mM Tris-HCl, pH 7.4 were individually pre-incubated overnight at 4° C. with 50 nM sFLT-1 in HEPES buffer (O.O1M Hepes,pH 7.4, 0.15M NaCl, 3 mM EDTA, 0.005% polysorbate 20 (v/v)). Thereafter the pre-incubated suspensions were passed across the immobilized monoclonal antibody and binding monitored by mass sensitive detection, measured in response units (RU). […] A further control was also run whereby the four Domain 4 constructs, which have not been pre-incubated with sFLT-1, were passed over the immobilized monoclonal antibody. After each run the sensor chip was regenerated in 10 mM Glycine pH 1.75 buffer ready for the next experiment.
In general terms: Surface plasmon resonance follows binding to a sensor surface in real time, without labels.
Take B1: the “% inhibition of sFLT-1” value is 73.3%.

As for B2, the “% inhibition of sFLT-1” value is 5.85%.

As to B3, the “% inhibition of sFLT-1” value came to 64.7%.
